In patent US20260258115A1 (MAPP BIOPHARMACEUTICAL, published 2026) one finds Kd data, which are given here for 17 molecules.

Holding throughout (experiment): BLI, IgG
(In general: Biolayer interferometry detects binding as a change in optical thickness at a sensor tip.)

The target in test [1] is RSV prefusion F (preF), subtype A (respiratory syncytial virus, subtype A, UniProt P03420 26-513).
Test [2] has as its target T1, RSV postfusion F (postF), subtype A (respiratory syncytial virus, subtype A, UniProt P03420 26-513).
T1 construct: also called F ΔFP; Postfusion subtype A

For test [3], the target named is RSV prefusion F (preF), subtype B (respiratory syncytial virus, subtype B).
Test [4] concerns the target T2, RSV postfusion F (postF), subtype B (respiratory syncytial virus, subtype B).
T2 construct: also called F ΔFP; Postfusion subtype B

B1: ADI-21002 (antibody, V domains shown)
VH: QVQLVESGPGLVKPSGTLSLTCAVSGDSINSGNWWNWVRQAPGKGLEWIGEIYHRGTSNYNPSLKSRVTISVDQSKNQFSLKVTSLTAADTAIYYCARARGYSSGPSYYYYLDVWGKGTLVTVSS
VL: EIVMTQSPSSLSASVGDRVTISCRASQSISTYLNWYQQKPGKAPKVIIYGASNLQSGVPSRFSGSGSGTDFTLTISSLQPEDFATYYCQKSFNPCVFGQGTKVDIK
In general, Kd refers to the free concentration of one partner at which half of the binding sites on the other are occupied at equilibrium, for simple one-to-one binding. Turning to B1, the Kd turned out to be 2.36 nM in test [1], 0.214 nM in test [2], 8.6 nM in test [3] and 6.39 nM in test [4].

B2: ADI-20976 (antibody, V domains shown)
VH: QVQLVESGGDLVQKGGSLRLSCAASGFTFDNYAMTWIRQAPGQGLEWVSTVSGFVLGTGYTTYYADSVKGRFTISRDSSKNTVYLQLNSLRAEDTAVYYCAKCAATRNECLWDYLQQWGQGTTVTVSS
VL: EIVMTQSPSSLSASVGDRVTITCRASQSVSIYLNWYQQKGGKAPKLLIYGASALQRGVPSRFSGSGSGTDFTLTITSLQPEDFATYFCHQSYSAPQTFGQGTKVDIK
In the case of B2, the Kd in test [1] came to 1.86 nM; in test [2], 0.263 nM; in test [3], 0.955 nM; in test [4], 0.304 nM.

B3: ADI-20975 (antibody, V domains shown)
VH: QVQLVESGTHVKKPGASVKVSCEASDDTFNNKGIVWVRQAPGQGLEWMGWIRPNNGNTKYAQKFQGRVTMTTDASTNTAYMELRSLRSGDTAVYYCAREQFKWNDFYFDYWGQGILVTVSS
VL: SYELMQPPSVSVAPGQTATITCGGSNIGSETVHWYQQKPGQAPVLVVHDDTDRPSGIPERFSGSNSGNTATLTISGVEAGDEADFYCQVRDSRTDDVVFGGGTKLTVL
For the molecule B3, the Kd in test [1] amounted to 0.092 nM; in test [2], 0.146 nM; in test [3] it was 0.0958 nM; in test [4], 0.129 nM.

B4: ADI-21003 (antibody, V domains shown)
VH: QVQLQQWGAGLLKPSETLSLSCAVSGGSFSGYYWTWIRQPPGKGLEWIGEINHSGSTNYNPSLKSRVTISVDTSKNQFSLKLSSVTAADTAVYYCARARYFDYLAHWSFDLWGRGTLVTVSS
VL: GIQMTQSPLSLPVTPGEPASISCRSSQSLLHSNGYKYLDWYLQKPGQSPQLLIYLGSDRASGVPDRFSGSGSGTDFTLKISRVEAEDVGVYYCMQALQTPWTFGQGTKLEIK
Turning to B4, the Kd in test [1] is 4.75 nM; in test [2], 0.44 nM; in test [3], 0.987 nM; in test [4], 0.421 nM.

B5: ADI-21000 (antibody, V domains shown)
VH: EVQLVESGPVLVKPRGTLTLTCTVSGFSLSDARMGVSWIRQPPGKALEWLAHIFWDDEKSYSTSLKNRLTISKDTSRGQVVLRMTNMDPVDTGTYFCARVNTYHSGGYYLYYFDVWGQGTLVTVSS
VL: EIVLTQSPSSLSASVGDRVTITCRASQIIASYLNWYQQKPGQAPKLLIYAASSLQSGVPSRFSGSGSGTDFTLTISSLQPEDFATYYCQQSYSTRMYTFGQGTKVEIK
As to B5, the dissociation constant (Kd) in test [1] was 1.49 nM; in test [2] it was 0.295 nM; in test [3], 1.3 nM; in test [4], 0.602 nM.

B6: ADI-14607 (antibody, V domains shown)
VH: EVQLLESGGGVVQSGRSLRLSCAASGFTFNNYAMHWVRQAPGKGLEWVAVISFDGGNKFYGDSVQGRFTISRDNSKNTLYLQTNSLRPEDTAVYYCARDRWEIQIGLDIWGQGTTVTVSS
VL: SYVLTQPPSVSVSPGQTARITCSGDALARQNAYWYQQKPGQAPVLVMYRDTGRPSGIPERFSGSSSGTTVTLTISEVQAEDEADYYCQSADSSGAYVFGTGTKVTVL
For the molecule B6, the Kd came out at 1.7 nM in test [1], 0.381 nM in test [2], 0.64 nM in test [3] and 0.227 nM in test [4].

B7: ADI-20993 (antibody, V domains shown)
VH: EVQLVESGGGVVQPGRSLRLTCAASGFPFSSYAMHWVRQAPGKGLEWVAVTWYDGPNRDYADSVKGRFTVSRDNSKNTLYLQMTSLRADDTAVYYCARRGSWGSFDYWGQGTLVTVSS
VL: DIVMTQSPLSLSATPGEPASISCRPSQSLLHSNGYNYLEWYLQKPGQSPQLLIYLGSNRASGVPDRFSGGGSGTDFTLRISRVEADDVGVYYCMQASQTPYTFGQGTKVEIK
Take B7: the Kd in test [1] was found to be 1.38 nM; in test [2], 0.168 nM; in test [3], 0.742 nM; in test [4], 0.273 nM.

B8: ADI-20981 (antibody, V domains shown)
VH: QVQLQESGPRLVKPSETLSLTCTVSGDSISSRNYFWAWIRQPPGKGLEWIGTIYYSGNTYSNPSLKSRVTISVDTSKKQFSLNLSSVTAADTAVYYCARGAYGGDAFDIWGQGTVVTVSS
VL: DIRVTQSPSSVSASVGDRVTITCRASQGIGTWLAWYQQKPGKAPHLLIYAASRLQSGVPSRFSGSGSGTDFTLSISSLHPEDFATYYCQQAYAFPRTFGQGTKVEIK
As to B8, the Kd in test [1] was 2.34 nM; in test [2], 0.233 nM; in test [3], 2.14 nM; in test [4], 0.295 nM.

B9: ADI-20963 (antibody, V domains shown)
VH: EVQLVESGGGLAKPGGSLRLSCAASGFTFSHYNMNWVRQAPGKGLEWVSSISSTGFHIYYADSVKGRFVISRDNAENSLHLQMNSLRADDTGLYYCVRAEYYYGSGSAGHYFDSWGQGTLVTVSS
VL: SYVLTQPPSVSVAPGHTAKITCGGSIIGTKSVHWYQQKPGQAPVLVVYDDSDRPSGIPERLSGSRSGNTATLTITRVEAGDEADYYCQVWDSSSEHAGVFGGGTKLTVL
For the molecule B9, the Kd came out at 0.791 nM in test [1], 0.0909 nM in test [2], 3.14 nM in test [3] and 0.614 nM in test [4].

B10: ADI-20990 (antibody, V domains shown)
VH: EVQLVESGGGVVQPGRSLRLSCSASGFPFHSYAMHWVRQAPGKGLEWVAGIWYEGSSESYADSVKGRLTISRDNSRNTLYLQMNSLRVEDTAVYYCARRGSFSGFDSWGQGSLVTVSS
VL: DIVMTQSPLSLPVTPGEPASISCRSSQSLLHSNGYNYLDWYLQKPGQSPQLLISLGSNRASGVPDRFSGSVAGTDFTLKISRVEAEDVGVYYCMQSSQTPYTFGQGTKVDIK
Regarding B10, the Kd in test [1] was found to be 1.58 nM; in test [2], 0.178 nM; in test [3], 0.904 nM; in test [4], 0.312 nM.

B11: ADI-20960 (antibody, V domains shown)
VH: QVQLQQWGAGVLKPSETLSLTCAVNGRSLSGHYWSWIRQTPGKGLEWIGEINNSGGTHYSPSLKSRVIISGDTAKNQLSLKLSSVTAADTAVYYCAKGSAEWYFDLWGRGTLVTVSS
VL: DIRVTQSPSTLSASVGDRVTITCRASQSVSTWLAWYQQKPGKPPSLLIFKASTLESGVPSRFSGSGSGTEFTLTISSLQPDDFATYYCQQYNTYSPWTFGPGTKVEIK
As to B11, the dissociation constant (Kd) in test [1] was determined as 0.22 nM; in test [2] it was 0.163 nM; in test [3], 0.23 nM; in test [4], 0.163 nM.

B12: ADI-20967 (antibody, V domains shown)
VH: EVQLLESGGGVVQPGRSVRLSCAASGFSFSSYALHWVRQAPGKGLEWVGVIWYEESNKYYADPVKGRFTISRDNSKNTLYLQMNSLRDEDTAVYYCARKGVATAGLDYWGQGTLVTVSS
VL: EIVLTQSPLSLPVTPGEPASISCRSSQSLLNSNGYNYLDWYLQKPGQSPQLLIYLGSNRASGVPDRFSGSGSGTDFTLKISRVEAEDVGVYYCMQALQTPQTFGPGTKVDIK
notes: also called Ab 220
Consider B12, for which the Kd in test [1] worked out at 2.23 nM; in test [2] it was 0.257 nM; in test [3], 4.08 nM; in test [4], 3.45 nM.

B13: ADI-20996 (antibody, V domains shown)
VH: QVQLVESGPALVKPTQTLTLTCTFSGFSLTTRGMCVSWIRQPPGKALEWLARIDWDDDKYYSTSLKTRLTISKDTSKNQVVLTMTNMDPVDTATYYCARASTLTTAGYYLHYKDVWGNGTTVTVSS
VL: DIRMTQSPSSLSASVGDRVTITCRASQSIGTYLNWFQQKPGKAPNLLIYAASILHSGVPSRFSGSGSGTDFTLTIRTLQPEDFATYYCQQSYPTVTFGQGTKVEIK
Regarding B13, the Kd stood at 1.03 nM in test [1], 0.204 nM in test [2], 1.06 nM in test [3] and 1.12 nM in test [4].

B14: ADI-20968 (antibody, V domains shown)
VH: QVQLQQWGAGLLKPSETLSLTCAMYGGSFSDDYWSWIRQPPGKGLEWIGEVNHGGSTNYNTSLKSRVTISADTSKKQFSLKLRSVTAADTAVYFCARGWRYCNATTCYSKAFDIWGQGTMVTVSS
VL: DIQMTQSPSSLSASVGDRVTITCQASQDIDIYLIWYQQKPGRAPKLLIYDASNLKTGVPSRFSGSGSGTEFTFTINNLQPEDFATYYCQQFHDLPLTFGGGTKLEIK
With B14, the Kd in test [1] was 0.135 nM; in test [2], 0.157 nM; in test [3] it was 0.127 nM; in test [4] it was 0.15 nM.

B15: ADI-20989 (antibody, V domains shown)
VH: EVQLLESGPGLVKPSGTLSLTCAVSGGSIINSNWWSWVRQSPGKGLEWIGDIYHSGSTTYNPSLKSRVTISVDRSKNQYSLRLTSVTAADTAVYYCAKIGPDNRSGPDYYYFMDVWGKGTTVTVSS
VL: EIVLTQSPSSLPASVGDRVTISCRASQSISNYVYWYQQKPGKAPKLLIYAASSLQSGVPSRFSGSGSGTDFTLSISSLQFEDFATYFCQQSYSTPPTFGQGTKLEIK
With B15, the Kd was determined as 4.8 nM in test [1], 0.428 nM in test [2], 6.29 nM in test [3] and 0.809 nM in test [4].

B16: ADI-20972 (antibody, V domains shown)
VH: QVQLQQWGAGLLRPSETLSLTCAVSGGSFSGHYWSWIRQPPGKGLEWIGGINHSGNTNYSPSLRSRVTMSVDTSRNQFSLMLRSVTAADTAVYFCARNVPNLYGDYPRWFDPWGQGTLVTVSS
VL: QSVLTQPASVSGSPGQSITISCTGTSSDVGGFNYVSWYQHHPGKAPKLMIYDVNNRPSGASNRFSGSKSGNTASLTISGLQAEDEADYYCSSYRSSDTLYVFGTGTKVTVL
Consider B16, for which the Kd in test [1] is 0.888 nM; in test [2] it was 0.401 nM; in test [3], 6.06 nM; in test [4], 3.48 nM.

B17: ADI-21001 (antibody, V domains shown)
VH: EVQLVESGPGLVKPSETLSLTCTVSGGSISDIDYYWGWIRQPPGKGLEWIGSIYYSGSTYYNPSLESRVTISVDTSKNQFSLKLRSVSAADTALYHCARHGPPWVVTAIRGHAFDVWGQGTTVTVSS
VL: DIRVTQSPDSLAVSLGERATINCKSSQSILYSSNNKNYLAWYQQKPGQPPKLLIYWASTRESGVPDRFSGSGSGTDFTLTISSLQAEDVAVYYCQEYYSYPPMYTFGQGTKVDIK
For B17, the Kd in test [1] came out at 2.12 nM; in test [2] it was 0.277 nM; in test [3], 1.85 nM; in test [4] it was 0.302 nM.
